Source: patent US20150344570A1 (published 2015)

T1: FcγRIIb extracellular domain with C-terminal His tag (human, UniProt P31994 43-217)
T1 construct: extracellular domain; also called FcgRIIb; 2b; not shown: His tag attached to the C terminus
T1 sequence (looked up): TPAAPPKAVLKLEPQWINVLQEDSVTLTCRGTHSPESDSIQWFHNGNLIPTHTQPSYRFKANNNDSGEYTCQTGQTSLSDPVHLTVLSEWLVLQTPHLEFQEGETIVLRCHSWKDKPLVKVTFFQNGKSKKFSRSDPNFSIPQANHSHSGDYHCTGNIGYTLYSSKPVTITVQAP


Tests used:
[1] = biological target: T2, FcγRIIIa extracellular domain with C-terminal His tag (human, UniProt P08637 17-208); test: SPR (Biacore), antibody captured on antigen peptide chip, FcγR as analyte; relative binding
T2 construct: extracellular domain; also called FcgRIIIa; 3a; not shown: His tag attached to the C terminus
Procedure: (§1) The heterodimerized antibodies He Abs in which one of the H chains was introduced with an alteration were assayed for their binding activities to each activating FcγR and inhibitory FcγR according to the method described in Example 4. […] The activating FcγRs in FIGS. 26, 27, 28, and 29 are FcγRIa, FcγRIIa (R), FcγRIIa (H), and FcγRIIIa, respectively.
(§2) Analysis of interaction between objective antibody and the FcγR was carried out using Biacore T100 (GE Healthcare). HBS-EP+ (GE Healthcare) was used as the running buffer, and the measurement temperature was set to 25° C. Chips produced by immobilizing the antigen peptide by the amine coupling method to a Series S Sencor Chip CM5 (GE Healthcare), or alternatively, chips produced by allowing preliminarily biotinylated antigen peptides to interact with and immobilize onto a Series S Sensor Chip SA (certified) (GE Healthcare) were used. Antibodies of interest were captured onto an antigen peptide-immobilized chip, and allowed to interact to each FcγR diluted with running buffer. To regenerate and repeatedly use the chip, the antibodies captured on the chip were washed off by reacting 10 mM glycine-HCl, pH 1.5.

[2] = biological target: T1, FcγRIIb extracellular domain with …; test: as above
Procedure: as §1, §2

T2 sequence (P08637 17-208): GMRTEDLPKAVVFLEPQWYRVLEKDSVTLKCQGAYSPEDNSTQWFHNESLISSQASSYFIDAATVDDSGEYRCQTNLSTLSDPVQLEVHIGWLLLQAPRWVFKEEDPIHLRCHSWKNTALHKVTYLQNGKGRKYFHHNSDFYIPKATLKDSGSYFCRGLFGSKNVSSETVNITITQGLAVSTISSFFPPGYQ

Binder | He/Con_3a [1] | He/Con_2b [2]
GpH7-A5/GpH7-B3 variant P331_14T/GpL16-k0 (He Ab) (antibody, human IgG1, kappa, Heterodimerized antibody with the alteration in one H chain only) heavy 1: not shown heavy 2: not shown light: DIVMTQSPLSLPVTPGEPASISCQASESLVHSNRNTYLHWYLQKPGQSPQLLIYKVSNRFSGVPDRFSGSGSGTDFTLKISRVEAEDVGVYYCSQNTHVPPTFGQGTKVEIERTVAAPSVFIFPPSDEQLKSGTASVVCLLNNFYPREAKVQWKVDNALQSGNSQESVTEQDSKDSTYSLSSTLTLSKADYEKHKVYACEVTHQGLSSPVTKSFNRGEC | 74.1 % of GpH7-A5/GpH7-B3/GpL16-k0 (=100) | 99.8 % of GpH7-A5/GpH7-B3/GpL16-k0 (=100)
GpH7-A5/GpH7-B3 variant L328_07I/GpL16-k0 (He Ab) (antibody, human IgG1, kappa, Heterodimerized antibody with the alteration in one H chain only) heavy 1: not shown heavy 2: not shown light: DIVMTQSPLSLPVTPGEPASISCQASESLVHSNRNTYLHWYLQKPGQSPQLLIYKVSNRFSGVPDRFSGSGSGTDFTLKISRVEAEDVGVYYCSQNTHVPPTFGQGTKVEIERTVAAPSVFIFPPSDEQLKSGTASVVCLLNNFYPREAKVQWKVDNALQSGNSQESVTEQDSKDSTYSLSSTLTLSKADYEKHKVYACEVTHQGLSSPVTKSFNRGEC | 84 % of GpH7-A5/GpH7-B3/GpL16-k0 (=100) | 160 % of GpH7-A5/GpH7-B3/GpL16-k0 (=100)
GpH7-A5/GpH7-B3 variant P331_11K/GpL16-k0 (He Ab) (antibody, human IgG1, kappa, Heterodimerized antibody with the alteration in one H chain only) heavy 1: not shown heavy 2: not shown light: DIVMTQSPLSLPVTPGEPASISCQASESLVHSNRNTYLHWYLQKPGQSPQLLIYKVSNRFSGVPDRFSGSGSGTDFTLKISRVEAEDVGVYYCSQNTHVPPTFGQGTKVEIERTVAAPSVFIFPPSDEQLKSGTASVVCLLNNFYPREAKVQWKVDNALQSGNSQESVTEQDSKDSTYSLSSTLTLSKADYEKHKVYACEVTHQGLSSPVTKSFNRGEC | 67.5 % of GpH7-A5/GpH7-B3/GpL16-k0 (=100) | 84.7 % of GpH7-A5/GpH7-B3/GpL16-k0 (=100)
GpH7-A5/GpH7-B3 variant P331_20W/GpL16-k0 (He Ab) (antibody, human IgG1, kappa, Heterodimerized antibody with the alteration in one H chain only) heavy 1: not shown heavy 2: not shown light: DIVMTQSPLSLPVTPGEPASISCQASESLVHSNRNTYLHWYLQKPGQSPQLLIYKVSNRFSGVPDRFSGSGSGTDFTLKISRVEAEDVGVYYCSQNTHVPPTFGQGTKVEIERTVAAPSVFIFPPSDEQLKSGTASVVCLLNNFYPREAKVQWKVDNALQSGNSQESVTEQDSKDSTYSLSSTLTLSKADYEKHKVYACEVTHQGLSSPVTKSFNRGEC | 78.6 % of GpH7-A5/GpH7-B3/GpL16-k0 (=100) | 111 % of GpH7-A5/GpH7-B3/GpL16-k0 (=100)

Second part, the binder after the results:

He/Con_3a [1] | He/Con_2b [2] | Binder
72.1 % of GpH7-A5/GpH7-B3/GpL16-k0 (=100) | 95.7 % of GpH7-A5/GpH7-B3/GpL16-k0 (=100) | GpH7-A5/GpH7-B3 variant P331_08L/GpL16-k0 (He Ab) (antibody, human IgG1, kappa, Heterodimerized antibody with the alteration in one H chain only) heavy 1: not shown heavy 2: not shown light: DIVMTQSPLSLPVTPGEPASISCQASESLVHSNRNTYLHWYLQKPGQSPQLLIYKVSNRFSGVPDRFSGSGSGTDFTLKISRVEAEDVGVYYCSQNTHVPPTFGQGTKVEIERTVAAPSVFIFPPSDEQLKSGTASVVCLLNNFYPREAKVQWKVDNALQSGNSQESVTEQDSKDSTYSLSSTLTLSKADYEKHKVYACEVTHQGLSSPVTKSFNRGEC
73.4 % of GpH7-A5/GpH7-B3/GpL16-k0 (=100) | 99.2 % of GpH7-A5/GpH7-B3/GpL16-k0 (=100) | GpH7-A5/GpH7-B3 variant P331_18N/GpL16-k0 (He Ab) (antibody, human IgG1, kappa, Heterodimerized antibody with the alteration in one H chain only) heavy 1: not shown heavy 2: not shown light: DIVMTQSPLSLPVTPGEPASISCQASESLVHSNRNTYLHWYLQKPGQSPQLLIYKVSNRFSGVPDRFSGSGSGTDFTLKISRVEAEDVGVYYCSQNTHVPPTFGQGTKVEIERTVAAPSVFIFPPSDEQLKSGTASVVCLLNNFYPREAKVQWKVDNALQSGNSQESVTEQDSKDSTYSLSSTLTLSKADYEKHKVYACEVTHQGLSSPVTKSFNRGEC
80.2 % of GpH7-A5/GpH7-B3/GpL16-k0 (=100) | 116 % of GpH7-A5/GpH7-B3/GpL16-k0 (=100) | GpH7-A5/GpH7-B3 variant P331_16H/GpL16-k0 (He Ab) (antibody, human IgG1, kappa, Heterodimerized antibody with the alteration in one H chain only) heavy 1: not shown heavy 2: not shown light: DIVMTQSPLSLPVTPGEPASISCQASESLVHSNRNTYLHWYLQKPGQSPQLLIYKVSNRFSGVPDRFSGSGSGTDFTLKISRVEAEDVGVYYCSQNTHVPPTFGQGTKVEIERTVAAPSVFIFPPSDEQLKSGTASVVCLLNNFYPREAKVQWKVDNALQSGNSQESVTEQDSKDSTYSLSSTLTLSKADYEKHKVYACEVTHQGLSSPVTKSFNRGEC
75.1 % of GpH7-A5/GpH7-B3/GpL16-k0 (=100) | 116 % of GpH7-A5/GpH7-B3/GpL16-k0 (=100) | GpH7-A5/GpH7-B3 variant P331_10E/GpL16-k0 (He Ab) (antibody, human IgG1, kappa, Heterodimerized antibody with the alteration in one H chain only) heavy 1: not shown heavy 2: not shown light: DIVMTQSPLSLPVTPGEPASISCQASESLVHSNRNTYLHWYLQKPGQSPQLLIYKVSNRFSGVPDRFSGSGSGTDFTLKISRVEAEDVGVYYCSQNTHVPPTFGQGTKVEIERTVAAPSVFIFPPSDEQLKSGTASVVCLLNNFYPREAKVQWKVDNALQSGNSQESVTEQDSKDSTYSLSSTLTLSKADYEKHKVYACEVTHQGLSSPVTKSFNRGEC
